167 variants from the RNAGym collection of RNA variant scans (doi:10.7554/elife.90254) can be followed below.

The labels stand for the following.
B1: LINE1-mini (parent)
chain: GGCAGAGCUCAACACAGCGUGGCAAAGUGGCUGUGGCUAGACUGCC

Variants of B1 are the subject of the series. Kind of series: self-cleavage, relative activity (ratio to wild type); higher = more cleavage; in vitro, sequencing; the parent is a self-cleaving ribozyme.
Take G1C G2U: the self-cleavage was 0.08.
The result for G1C G2C reads 0.15; that for G1C G2A, 0.13; that for G1A G5A, 0.2.
For G1A G5C the value was 0.08; for G1A G5U, 0.08; for G1A C10A, 0.12.
The result for G1A C10G reads 0.18; that for G1A C10U, 0.35.
For G1A C3U, the self-cleavage is 0.47.
In the case of G1A C3G, the self-cleavage stood at 0.56.
For G1A U34A the value was 0.08.
The result for G1A U34C reads 0.14.
The result for G1A U34G reads 0.29.
Consider G1A A25G, for which the self-cleavage was found to be 0.39.
For G1A A25C the value was 1.36; for G1A A25U, 1.09.
The result for G1A U28A reads 0.26.
The result for G1A U28G reads 0.6; that for G1A U28C, 0.39; that for G1C A11U, 0.03.
As to G1C A11C, the self-cleavage is 0.01.
G1C A11G: the self-cleavage came out at 0.01.
The result for G1U A11G reads 0.02; that for G1U A11U, 0.07.
For G1U A11C the value was 0.03; for G1C U20G, 0.05; for G1C U20A, 0.06.
With G1C U20C, the self-cleavage is 0.04.
The result for G1A U9A reads 0.34; that for G1A U9G, 0.22; that for G1A U9C, 0.1.
For G1C G30U the value was 0.06; for G1C G30C, 0.04; for G1C G30A, 0.18.
As to G1C G44A, the self-cleavage came out at 0.06.
For G1C G44U the value was 0.06.
The result for G1C G44C reads 0.03; that for G1C G35C, 0.02; that for G1C G35A, 0.03.
For the variant G1C G35U, the self-cleavage stood at 0.03.
The result for G1C G27U reads 0.12; that for G1C G27C, 0.14.
The result for G1C G27A reads 0.16; that for G1A A11G, 0.06; that for G1A A11U, 0.17.
For G1A A11C the value was 0.04.
On to G1C C18A, for which the self-cleavage is 0.04.
The result for G1C C18G reads 0.03.
For G1C C18U the value was 0.05; for G1U C31G, 0.04.
For G1U C31A the value was 0.07; for G1U C31U, 0.07; for G1A C13A, 0.13.
Turning to G1A C13U, the self-cleavage stood at 0.2.
For G1A C13G the value was 0.1; for G1A A24C, 0.56.
The result for G1A A24U reads 1.15; that for G1A A24G, 2.89; that for G1U A39C, 0.09.
For the variant G1U A39G, the self-cleavage is 0.05.
The result for G1U A39U reads 0.2; that for G1C U38G, 0.01.
The result for G1C U38A reads 0.05.
The result for G1C U38C reads 0.06; that for G1C A25U, 0.08; that for G1C A25C, 0.1.
For the variant G1C A25G, the self-cleavage was found to be 0.01.
For G1C C42G, the self-cleavage was found to be 0.01.
The result for G1C C42A reads 0.02; that for G1C C42U, 0.04; that for G1A U20G, 0.58.
For G1A U20A the value was 1.27; for G1A U20C, 0.33.
Regarding G1A C37A, the self-cleavage turned out to be 0.07.
The result for G1A C37U reads 0.08; that for G1A C37G, 0.04; that for G1C C15G, 0.03.
For G1C C15U the value was 0.07; for G1C C15A, 0.02.
With G1A A4U, the self-cleavage came out at 0.27.
For G1A A4G the value was 0.31; for G1A A4C, 0.08; for G1A U38C, 0.84.
Regarding G1A U38G, the self-cleavage came out at 0.03.
The result for G1A U38A reads 1.36; that for G1C U43C, 0.03.
Consider G1C U43A, for which the self-cleavage turned out to be 0.02.
For G1C U43G the value was 0.13; for G1C A4C, 0.12.
For G1C A4U the value was 0.06; for G1C A4G, 0.07; for G1U C13G, 0.13.
As for G1U C13A, the self-cleavage is 0.05.
Regarding G1U C13U, the self-cleavage came to 0.07.
Regarding G1C A26U, the self-cleavage was determined as 0.12.
The result for G1C A26G reads 0.09; that for G1C A26C, 0.08; that for G1C U32G, 0.04.
For G1C U32A the value was 0.02; for G1C U32C, 0.03.
The result for G1A G36C reads 0.11; that for G1A G36A, 0.18; that for G1A G36U, 0.1.
For the variant G1C C13G, the self-cleavage worked out at 0.04.
G1C C13U: the self-cleavage was 0.04.
The result for G1C C13A reads 0.05; that for G1U C10A, 0.03; that for G1U C10G, 0.03.
As for G1U C10U, the self-cleavage was found to be 0.08.
The result for G1U C3U reads 0.27.
For G1U C3A the value was 0.85; for G1U C3G, 0.25.
Take G1C U34C: the self-cleavage came to 0.03.
For G1C U34A the value was 0.01; for G1C U34G, 0.02; for G1C U9C, 0.03.
Turning to G1C U9A, the self-cleavage turned out to be 0.02.
Turning to G1C U9G, the self-cleavage was determined as 0.02.
For G1C A16G the value was 0.12; for G1C A16U, 0.02; for G1C A16C, 0.01.
The result for G1A G30C reads 1.51; that for G1A G30A, 0.85.
Consider G1A G30U, for which the self-cleavage was 1.59.
With G1A G40U, the self-cleavage turned out to be 0.1.
On to G1A G40C, for which the self-cleavage amounted to 0.07.
For G1A G40A the value was 0.11; for G1A C42G, 0.06; for G1A C42U, 0.16.
The result for G1A C42A reads 0.06; that for G1U A16U, 0.05.
For G1U A16G the value was 0.22; for G1U A16C, 0.08.
As for G1C A39C, the self-cleavage was found to be 0.04.
For G1C A39U the value was 0.06; for G1C A39G, 0.01.
The result for G1A G35A reads 0.2.
For G1A G35U, the self-cleavage was determined as 0.17.
The result for G1A G35C reads 0.1; that for G1C G17U, 0.02; that for G1C G17C, 0.06.
For G1C G17A the value was 0.02; for G1C G33A, 0.03; for G1C G33C, 0.14.
For G1C G33U the value was 0.04; for G1C G19C, 0.04; for G1C G19A, 0.11.
For G1C G19U, the self-cleavage came to 0.06.
For G1U A41U the value was 0.33; for G1U A41C, 0.05; for G1U A41G, 0.1.
On to G1A G44C, for which the self-cleavage is 0.47.
Consider G1A G44U, for which the self-cleavage was 0.91.
The result for G1A G44A reads 0.28; that for G1A A39C, 0.14.
The result for G1A A39G reads 0.12; that for G1A A39U, 1.46; that for G1C G21C, 0.06.
For G1C G21U the value was 0.17; for G1C G21A, 0.42.
Consider G1C G29U, for which the self-cleavage amounted to 0.14.
For G1C G29C the value was 0.07; for G1C G29A, 0.16.
The result for G1A C45U reads 1.19; that for G1A C45G, 0.34; that for G1A C45A, 0.82.
